{"source": "paper PMC2930068", "key": {"[1]": {"molecular_target": "importin α5 (79-538) in the ITC cell (human) (UniProt P52294)", "assay": "ITC"}, "[2]": {"molecular_target": "importin α5 (79-538) in the ITC cell (human) (UniProt P52294)", "assay": "ITC", "remark": "listed apart in the source"}}, "note": "Like-named read-outs stand apart in the source and are kept apart here. Square brackets hold non-standard residues; d marks the D form. Ends that are not written are not given here. pS = N[C@@H](COP(=O)(O)O)C(=O)O", "data": [{"binder": "KRPRSP[pS]S", "note": "[phosphorylated EBNA-1 NLS peptide (379-KRPRSPpSS-386)]", "values": [{"measurement": "dH", "setting": "[1]", "result": 6.95, "unit": "kcal/mol"}]}, {"binder": "KRPRSPSS (not fully specified)", "note": "[unphosphorylated EBNA-1 NLS peptide (379-KRPRSPSS-386)]", "values": [{"measurement": "Kd", "setting": "[1]", "result": 30, "unit": "µM"}, {"measurement": "dH", "setting": "[1]", "result": 6.55, "unit": "kcal/mol"}, {"measurement": "Kd", "setting": "[2]", "result": 60, "unit": "µM"}]}]}
